{"source": "paper doi:10.1101/2021.12.16.472929", "about": "(bioRxiv, 2021)", "key": {"SEC": {"target": "the molecule itself", "assay": "SEC"}, "SEC-SAXS [1]": {"target": "the molecule itself", "assay": "SEC-SAXS"}, "SEC-SAXS [2]": {"target": "the molecule itself", "assay": "SEC-SAXS", "remark": "listed apart in the source"}}, "note": "Like-named read-outs stand apart in the source and are kept apart here.", "data": [{"protein": "FLhArc, full-length human Arc (capsid / high-molecular-weight forms) (natural protein) MELDHRTSGGLHAYPGPRGGQVAKPNVILQIGKCRAEMLEHVRRTHRHLLAEVSKQVERELKGLHRSVGKLESNLDGYVPTSDSQRWKKSIKACLCRCQETIANLERWVKREMHVWREVFYRLERWADRLESTGGKYPVGSESARHTVSVGVGGPESYCHEADGYDYTVSPYAITPPPAAGELPGQEPAEAQQYQPWVPGEDGQPSPGVDTQIFEDPREFLSHLEEYLRQVGGSEEYWLSQIQNHMNGPAKKWWEFKQGSVKNWVEFKKEFLQYSEGTLSREAIQRELDLPQKQGEPLDQFLWRKRDLYQTLYVDADEEEIIQYVVGTLQPKLKRFLRHPLPKTLEQLIQRGMEVQDDLEQAAEPAGPHLPVEDEAETLTPAPNSESVASDRTQPE", "values": [{"measurement": "binding result", "setting": "SEC", "result": "binds"}]}, {"protein": "FLrArc-7A, full-length rat Arc with a poly-Ala mutation of residues 113-119 (natural protein) MELDHMTTGGLHAYPAPRGGPAAKPNVILQIGKCRAEMLEHVRRTHRHLLTEVSKQVERELKGLHRSVGKLENNLDGYVPTGDSQRWKKSIKACLCRCQETIANLERWVKREAAAAAAAFYRLERWADRLESMGGKYPVGSEPARHTVSVGVGGPEPYCQEADGYDYTVSPYAITPPPAAGELPEQESVGAQQYQSWVPGEDGQPSPGVDTQIFEDPREFLSHLEEYLRQVGGSEEYWLSQIQNHMNGPAKKWWEFKQGSVKNWVEFKKEFLQYSEGTLSREAIQRELDLPQKQGEPLDQFLWRKRDLYQTLYVDAEEEEIIQYVVGTLQPKFKRFLRHPLPKTLEQLIQRGMEVQDGLEQAAEPSVTPLPTEDETEALTPALTSESVASDRTQPE", "values": [{"measurement": "stoichiometry N", "setting": "SEC-SAXS [1]", "result": 2}]}, {"protein": "MBP-2rNT, N-terminal domain of rat Arc (residues 24-137) with the poly-Ala mutation, His6-MBP fusion (domain or fragment) KPNVILQIGKCRAEMLEHVRRTHRHLLTEVSKQVERELKGLHRSVGKLENNLDGYVPTGDSQRWKKSIKACLCRCQETIANLERWVKREAAAAAAAFYRLERWADRLESMGGKY", "values": [{"measurement": "stoichiometry N", "setting": "SEC-SAXS [2]", "result": 2}]}]}
